Results taken from patent US20210388087A1 (Chugai, published 2021).

Molecular target: T1, Human CD137 ECD (human)
T1 construct: also called 4-1BB
Assay: single mutant vs template dBBDu183H

T1 sequence (chain, as listed by the source limits assumed): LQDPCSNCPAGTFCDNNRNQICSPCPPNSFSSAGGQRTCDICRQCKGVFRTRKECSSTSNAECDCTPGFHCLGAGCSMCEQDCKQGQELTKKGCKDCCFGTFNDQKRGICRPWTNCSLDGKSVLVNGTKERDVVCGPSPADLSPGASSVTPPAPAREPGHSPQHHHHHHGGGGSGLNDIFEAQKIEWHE

Row | Binder | fold change of affinity
1 | H183/L072 VH S30A (antibody, name in Kabat numbering, V domains shown) VH: QVQLVESGGGLVQPGRSLRLSCAASGFTFANAWMHWVRQAPGKGLEWVAQIKDKGNAYAAYYAPSVKGRFTISRDDSKNSIYLQMNSLKTEDTAVYYCHYVHYASASTVLPAFGVDAWGQGTTVTVSS VL: DIVMTQSPLSLPVTPGEPASISCQASQELVHMNRNTYLHWYQQKPGQAPRLLIYKVSNRFPGVPDRFSGSGSGTDFTLKISRVEAEDVGVYYCAQGTSVPFTFGQGTKLEIK | 1.2 fold
2 | H183/L072 VH S30N (antibody, name in Kabat numbering, V domains shown) VH: QVQLVESGGGLVQPGRSLRLSCAASGFTFNNAWMHWVRQAPGKGLEWVAQIKDKGNAYAAYYAPSVKGRFTISRDDSKNSIYLQMNSLKTEDTAVYYCHYVHYASASTVLPAFGVDAWGQGTTVTVSS VL: DIVMTQSPLSLPVTPGEPASISCQASQELVHMNRNTYLHWYQQKPGQAPRLLIYKVSNRFPGVPDRFSGSGSGTDFTLKISRVEAEDVGVYYCAQGTSVPFTFGQGTKLEIK | 0.6 fold
3 | H183/L072 VH S30K (antibody, name in Kabat numbering, V domains shown) VH: QVQLVESGGGLVQPGRSLRLSCAASGFTFKNAWMHWVRQAPGKGLEWVAQIKDKGNAYAAYYAPSVKGRFTISRDDSKNSIYLQMNSLKTEDTAVYYCHYVHYASASTVLPAFGVDAWGQGTTVTVSS VL: DIVMTQSPLSLPVTPGEPASISCQASQELVHMNRNTYLHWYQQKPGQAPRLLIYKVSNRFPGVPDRFSGSGSGTDFTLKISRVEAEDVGVYYCAQGTSVPFTFGQGTKLEIK | 0.7 fold
4 | H183/L072 VH S30E (antibody, name in Kabat numbering, V domains shown) VH: QVQLVESGGGLVQPGRSLRLSCAASGFTFENAWMHWVRQAPGKGLEWVAQIKDKGNAYAAYYAPSVKGRFTISRDDSKNSIYLQMNSLKTEDTAVYYCHYVHYASASTVLPAFGVDAWGQGTTVTVSS VL: DIVMTQSPLSLPVTPGEPASISCQASQELVHMNRNTYLHWYQQKPGQAPRLLIYKVSNRFPGVPDRFSGSGSGTDFTLKISRVEAEDVGVYYCAQGTSVPFTFGQGTKLEIK | 0.6 fold
5 | H183/L072 VH S30L (antibody, name in Kabat numbering, V domains shown) VH: QVQLVESGGGLVQPGRSLRLSCAASGFTFLNAWMHWVRQAPGKGLEWVAQIKDKGNAYAAYYAPSVKGRFTISRDDSKNSIYLQMNSLKTEDTAVYYCHYVHYASASTVLPAFGVDAWGQGTTVTVSS VL: DIVMTQSPLSLPVTPGEPASISCQASQELVHMNRNTYLHWYQQKPGQAPRLLIYKVSNRFPGVPDRFSGSGSGTDFTLKISRVEAEDVGVYYCAQGTSVPFTFGQGTKLEIK | 0.5 fold
6 | H183/L072 VH S30H (antibody, name in Kabat numbering, V domains shown) VH: QVQLVESGGGLVQPGRSLRLSCAASGFTFHNAWMHWVRQAPGKGLEWVAQIKDKGNAYAAYYAPSVKGRFTISRDDSKNSIYLQMNSLKTEDTAVYYCHYVHYASASTVLPAFGVDAWGQGTTVTVSS VL: DIVMTQSPLSLPVTPGEPASISCQASQELVHMNRNTYLHWYQQKPGQAPRLLIYKVSNRFPGVPDRFSGSGSGTDFTLKISRVEAEDVGVYYCAQGTSVPFTFGQGTKLEIK | 0.6 fold
7 | H183/L072 VH S30G (antibody, name in Kabat numbering, V domains shown) VH: QVQLVESGGGLVQPGRSLRLSCAASGFTFGNAWMHWVRQAPGKGLEWVAQIKDKGNAYAAYYAPSVKGRFTISRDDSKNSIYLQMNSLKTEDTAVYYCHYVHYASASTVLPAFGVDAWGQGTTVTVSS VL: DIVMTQSPLSLPVTPGEPASISCQASQELVHMNRNTYLHWYQQKPGQAPRLLIYKVSNRFPGVPDRFSGSGSGTDFTLKISRVEAEDVGVYYCAQGTSVPFTFGQGTKLEIK | 0.9 fold
8 | H183/L072 VH S30F (antibody, name in Kabat numbering, V domains shown) VH: QVQLVESGGGLVQPGRSLRLSCAASGFTFFNAWMHWVRQAPGKGLEWVAQIKDKGNAYAAYYAPSVKGRFTISRDDSKNSIYLQMNSLKTEDTAVYYCHYVHYASASTVLPAFGVDAWGQGTTVTVSS VL: DIVMTQSPLSLPVTPGEPASISCQASQELVHMNRNTYLHWYQQKPGQAPRLLIYKVSNRFPGVPDRFSGSGSGTDFTLKISRVEAEDVGVYYCAQGTSVPFTFGQGTKLEIK | 0.7 fold
9 | H183/L072 VH S30P (antibody, name in Kabat numbering, V domains shown) VH: QVQLVESGGGLVQPGRSLRLSCAASGFTFPNAWMHWVRQAPGKGLEWVAQIKDKGNAYAAYYAPSVKGRFTISRDDSKNSIYLQMNSLKTEDTAVYYCHYVHYASASTVLPAFGVDAWGQGTTVTVSS VL: DIVMTQSPLSLPVTPGEPASISCQASQELVHMNRNTYLHWYQQKPGQAPRLLIYKVSNRFPGVPDRFSGSGSGTDFTLKISRVEAEDVGVYYCAQGTSVPFTFGQGTKLEIK | 0.9 fold
10 | H183/L072 VH S30Q (antibody, name in Kabat numbering, V domains shown) VH: QVQLVESGGGLVQPGRSLRLSCAASGFTFQNAWMHWVRQAPGKGLEWVAQIKDKGNAYAAYYAPSVKGRFTISRDDSKNSIYLQMNSLKTEDTAVYYCHYVHYASASTVLPAFGVDAWGQGTTVTVSS VL: DIVMTQSPLSLPVTPGEPASISCQASQELVHMNRNTYLHWYQQKPGQAPRLLIYKVSNRFPGVPDRFSGSGSGTDFTLKISRVEAEDVGVYYCAQGTSVPFTFGQGTKLEIK | 0.7 fold
11 | H183/L072 VH S30M (antibody, name in Kabat numbering, V domains shown) VH: QVQLVESGGGLVQPGRSLRLSCAASGFTFMNAWMHWVRQAPGKGLEWVAQIKDKGNAYAAYYAPSVKGRFTISRDDSKNSIYLQMNSLKTEDTAVYYCHYVHYASASTVLPAFGVDAWGQGTTVTVSS VL: DIVMTQSPLSLPVTPGEPASISCQASQELVHMNRNTYLHWYQQKPGQAPRLLIYKVSNRFPGVPDRFSGSGSGTDFTLKISRVEAEDVGVYYCAQGTSVPFTFGQGTKLEIK | 0.8 fold
12 | H183/L072 VH S30D (antibody, name in Kabat numbering, V domains shown) VH: QVQLVESGGGLVQPGRSLRLSCAASGFTFDNAWMHWVRQAPGKGLEWVAQIKDKGNAYAAYYAPSVKGRFTISRDDSKNSIYLQMNSLKTEDTAVYYCHYVHYASASTVLPAFGVDAWGQGTTVTVSS VL: DIVMTQSPLSLPVTPGEPASISCQASQELVHMNRNTYLHWYQQKPGQAPRLLIYKVSNRFPGVPDRFSGSGSGTDFTLKISRVEAEDVGVYYCAQGTSVPFTFGQGTKLEIK | 0.4 fold
13 | H183/L072 VH S30I (antibody, name in Kabat numbering, V domains shown) VH: QVQLVESGGGLVQPGRSLRLSCAASGFTFINAWMHWVRQAPGKGLEWVAQIKDKGNAYAAYYAPSVKGRFTISRDDSKNSIYLQMNSLKTEDTAVYYCHYVHYASASTVLPAFGVDAWGQGTTVTVSS VL: DIVMTQSPLSLPVTPGEPASISCQASQELVHMNRNTYLHWYQQKPGQAPRLLIYKVSNRFPGVPDRFSGSGSGTDFTLKISRVEAEDVGVYYCAQGTSVPFTFGQGTKLEIK | 0.6 fold

Further lines, results first:

Row | fold change of affinity | Binder
14 | 0.8 fold | H183/L072 VH S30V (antibody, name in Kabat numbering, V domains shown) VH: QVQLVESGGGLVQPGRSLRLSCAASGFTFVNAWMHWVRQAPGKGLEWVAQIKDKGNAYAAYYAPSVKGRFTISRDDSKNSIYLQMNSLKTEDTAVYYCHYVHYASASTVLPAFGVDAWGQGTTVTVSS VL: DIVMTQSPLSLPVTPGEPASISCQASQELVHMNRNTYLHWYQQKPGQAPRLLIYKVSNRFPGVPDRFSGSGSGTDFTLKISRVEAEDVGVYYCAQGTSVPFTFGQGTKLEIK
15 | 0.9 fold | H183/L072 VH S62L (antibody, name in Kabat numbering, V domains shown) VH: QVQLVESGGGLVQPGRSLRLSCAASGFTFSNAWMHWVRQAPGKGLEWVAQIKDKGNAYAAYYAPLVKGRFTISRDDSKNSIYLQMNSLKTEDTAVYYCHYVHYASASTVLPAFGVDAWGQGTTVTVSS VL: DIVMTQSPLSLPVTPGEPASISCQASQELVHMNRNTYLHWYQQKPGQAPRLLIYKVSNRFPGVPDRFSGSGSGTDFTLKISRVEAEDVGVYYCAQGTSVPFTFGQGTKLEIK
16 | 0.9 fold | H183/L072 VH S30T (antibody, name in Kabat numbering, V domains shown) VH: QVQLVESGGGLVQPGRSLRLSCAASGFTFTNAWMHWVRQAPGKGLEWVAQIKDKGNAYAAYYAPSVKGRFTISRDDSKNSIYLQMNSLKTEDTAVYYCHYVHYASASTVLPAFGVDAWGQGTTVTVSS VL: DIVMTQSPLSLPVTPGEPASISCQASQELVHMNRNTYLHWYQQKPGQAPRLLIYKVSNRFPGVPDRFSGSGSGTDFTLKISRVEAEDVGVYYCAQGTSVPFTFGQGTKLEIK
17 | 0.7 fold | H183/L072 VH S62I (antibody, name in Kabat numbering, V domains shown) VH: QVQLVESGGGLVQPGRSLRLSCAASGFTFSNAWMHWVRQAPGKGLEWVAQIKDKGNAYAAYYAPIVKGRFTISRDDSKNSIYLQMNSLKTEDTAVYYCHYVHYASASTVLPAFGVDAWGQGTTVTVSS VL: DIVMTQSPLSLPVTPGEPASISCQASQELVHMNRNTYLHWYQQKPGQAPRLLIYKVSNRFPGVPDRFSGSGSGTDFTLKISRVEAEDVGVYYCAQGTSVPFTFGQGTKLEIK
18 | 0.5 fold | H183/L072 VH S30Y (antibody, name in Kabat numbering, V domains shown) VH: QVQLVESGGGLVQPGRSLRLSCAASGFTFYNAWMHWVRQAPGKGLEWVAQIKDKGNAYAAYYAPSVKGRFTISRDDSKNSIYLQMNSLKTEDTAVYYCHYVHYASASTVLPAFGVDAWGQGTTVTVSS VL: DIVMTQSPLSLPVTPGEPASISCQASQELVHMNRNTYLHWYQQKPGQAPRLLIYKVSNRFPGVPDRFSGSGSGTDFTLKISRVEAEDVGVYYCAQGTSVPFTFGQGTKLEIK
19 | 0.5 fold | H183/L072 VH S30W (antibody, name in Kabat numbering, V domains shown) VH: QVQLVESGGGLVQPGRSLRLSCAASGFTFWNAWMHWVRQAPGKGLEWVAQIKDKGNAYAAYYAPSVKGRFTISRDDSKNSIYLQMNSLKTEDTAVYYCHYVHYASASTVLPAFGVDAWGQGTTVTVSS VL: DIVMTQSPLSLPVTPGEPASISCQASQELVHMNRNTYLHWYQQKPGQAPRLLIYKVSNRFPGVPDRFSGSGSGTDFTLKISRVEAEDVGVYYCAQGTSVPFTFGQGTKLEIK
20 | 0.7 fold | H183/L072 VH S30R (antibody, name in Kabat numbering, V domains shown) VH: QVQLVESGGGLVQPGRSLRLSCAASGFTFRNAWMHWVRQAPGKGLEWVAQIKDKGNAYAAYYAPSVKGRFTISRDDSKNSIYLQMNSLKTEDTAVYYCHYVHYASASTVLPAFGVDAWGQGTTVTVSS VL: DIVMTQSPLSLPVTPGEPASISCQASQELVHMNRNTYLHWYQQKPGQAPRLLIYKVSNRFPGVPDRFSGSGSGTDFTLKISRVEAEDVGVYYCAQGTSVPFTFGQGTKLEIK
21 | 0.7 fold | H183/L072 VH S62A (antibody, name in Kabat numbering, V domains shown) VH: QVQLVESGGGLVQPGRSLRLSCAASGFTFSNAWMHWVRQAPGKGLEWVAQIKDKGNAYAAYYAPAVKGRFTISRDDSKNSIYLQMNSLKTEDTAVYYCHYVHYASASTVLPAFGVDAWGQGTTVTVSS VL: DIVMTQSPLSLPVTPGEPASISCQASQELVHMNRNTYLHWYQQKPGQAPRLLIYKVSNRFPGVPDRFSGSGSGTDFTLKISRVEAEDVGVYYCAQGTSVPFTFGQGTKLEIK
